Columns and labels:
[1] = molecular target: hyper-phosphorylated P301L mutant human 4R0N tau from rTg4510 mouse brain (64 and 70 kDa species; P3 / brain extract) (human) (UniProt P10636); test: immunodepletion of rTg4510 brain extract with antibody on Protein G Dynabeads; western blot
[2] = molecular target: hyper-phosphorylated P301L mutant human 4R0N tau from rTg4510 mouse brain (64 and 70 kDa species; P3 / brain extract) (human) (UniProt P10636); test: immunodepletion of rTg4510 brain extracts; western blot quantification (FIG. 14)
[3] = molecular target: hyper-phosphorylated P301L mutant human 4R0N tau from rTg4510 mouse brain (64 and 70 kDa species; P3 / brain extract) (human) (UniProt P10636); test: MSD ELISA on immobilised P3; ratio of binding to Tg4510 over wt mouse material
[4] = molecular target: hyper-phosphorylated P301L mutant human 4R0N tau from rTg4510 mouse brain (64 and 70 kDa species; P3 / brain extract) (human) (UniProt P10636); test: cell-based or functional assay
[5] = molecular target: hyper-phosphorylated P301L mutant human 4R0N tau from rTg4510 mouse brain (64 and 70 kDa species; P3 / brain extract) (human) (UniProt P10636); test: fluid phase MSD ELISA: antibody mixed with rTg4510 P3 in solution, capture on C10-2 coated plates
[6] = molecular target: aggregated tau in rTg4510 brain extract (Cisbio assay) (human) (UniProt P10636); test: immunodepletion of rTg4510 brain extract with antibody on Protein G Dynabeads; Cisbio aggregation assay
aggregated tau in rTg4510 brain extract (Cisbio assay) (human), sequence (P10636 other isoform, or with tags, fused parts or gaps): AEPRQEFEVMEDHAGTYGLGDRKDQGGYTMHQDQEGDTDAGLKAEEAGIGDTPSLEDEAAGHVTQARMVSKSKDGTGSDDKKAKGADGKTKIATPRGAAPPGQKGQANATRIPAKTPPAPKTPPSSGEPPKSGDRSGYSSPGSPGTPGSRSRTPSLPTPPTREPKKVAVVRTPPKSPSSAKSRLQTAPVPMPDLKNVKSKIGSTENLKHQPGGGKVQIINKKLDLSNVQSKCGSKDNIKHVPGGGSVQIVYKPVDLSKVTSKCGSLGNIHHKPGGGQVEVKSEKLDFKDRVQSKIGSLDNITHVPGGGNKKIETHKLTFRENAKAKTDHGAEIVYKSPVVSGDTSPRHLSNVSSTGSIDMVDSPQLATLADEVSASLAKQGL

hyper-phosphorylated P301L mutant human 4R0N tau from rTg4510 mouse brain (64 and 70 kDa species; P3 / brain extract) (human), sequence (P10636 other isoform, or with tags, fused parts or gaps P301L P301L): as the sequence (P10636 other isoform, or with tags, fused parts or gaps) above

Row | percent removed by immunodepletion [1] [%] | percent reduction of the 64 kDa band [2] [%] | TG/wt [3] [fold] | prevention of insoluble tau in HEK293 cells seeded with immunodepleted rTg4510 homogenate (western blot) [4] [%] | prevention of tau aggregation in HEK293 cells seeded with immunodepleted rTg4510 homogenate (Cisbio assay) [4] [%] | IC50 [5] [nM] | percent of tau aggregates removed [6] [%] | Binder
1 | 95 | 90 |  |  |  |  |  | Antibody D1.2 (antibody, mouse IgG2b, kappa, V domains shown) VH: QVQLQQSGAELVRPGASVTLSCKASGNTFTDYEIHWVKQTPVHGLEWIGAIDPETGNTAYNQKFKGKARLTADKSSSTAYMELRSLTSEDSAVYYCTRSRGFDYWGQGTTLTVSS VL: DVMMTQTPLSLPVSLGDQASISCRSSQSLVHSNGNTYLHWHLQKPGQSPKFLIYKVSNRFSGVPDRFSGSGSGTDFTLKISRVEAEDLGVYFCSQSTHVPFTFGSGTKLEIKR
2 |  |  | 1 |  |  |  |  | 4E4 antibody (antibody, from another filing, V domains shown) VH: EVQLVESGGGLVQPGGSLKLSCAASGFNFNISAIHWVRQASGKGLEWVGRIRSKSHNYATLYAASLKGRFTLSRDDSRNTAYLQMSSLQTEDMAVYYCTVLSANYDTFDYWGQGTLVTVSS VL: SYELTQPPSVSVSPGQTARISCFGDTLPKQYTYWYQQKPGQAPVLVIYKDTERPSGIPERFSGSSSGTTVTLTISGVQAEDEADYYCLSADNSATWVFGGGTKVTVL
3 | 95 | 90 | 118 | 97 | 88 | 20 | 99 | Antibody C10-2 (murine) (antibody, mouse IgG1, kappa, V domains shown) VH: QVQLQQSDAELVKPGASVKISCKASGYTFTDRTIHWVKQRPEQGLEWIGYIYPGDGSTKYNENFKGKATLTADKSSSTAYMQLNSLTSEDSAVYFCARRGAMDYWGQGTSVTVSS VL: DVQMIQSPSSLSASLGDIVTMTCQASQGTSINLNWFQQKPGKAPKLLIYGASNLEDGVPSRFSGSRYGTDFTLTISSLEDEDMATYFCLQHTYLPFTFGSGTKLEIKR

— US20170015738A1
